B1: HDV Ribozyme (parent)
chain: GGCCGGCAUGGUCCCAGCCUCCUCGCUGGCGCCGGCUGGGCAACAUUCCGAGGGGACCGUCCCCUCGGUAAUGGCGAAUGGGACCCA

Variants of: B1
Assay: self-cleavage, relative activity (ratio to wild type); higher = more cleavage; co-transcriptional

**Q.** Which self-cleavage does the source give for GGCCGGCAUGGUCCAAGCCUCCUCGCUGGCGCCGGCUGGGCAACAUUCGGAGGGGACCGUCCCCUCGGUAAUGGCGAAUGGGACCCA [C15A C49G] here?
**A.** Its self-cleavage is 0.166.

**Q.** For GGCCGGCAUGGUCCAAGCCUCCUCGCUGGCGCCGGCUGGGCAACAUUCCGAGGGGACCGUGCCCUCGGUAAUGGCGAAUGGGACCCA [C15A C61G], which self-cleavage is on record?
**A.** The self-cleavage was 0.508.

**Q.** For GGCCGGCAUGGUCCAAGCCUCCUCGCUGGCGCCGGCUGGGCAAAAUUCCGAGGGGACCGUCCCCUCGGUAAUGGCGAAUGGGACCCA [C15A C44A], which self-cleavage is on record?
**A.** Its self-cleavage is 0.529.

**Q.** With GGCCGGCAUGGUCCAAGCCUCCUCGCUGGCGCCGGCUGGGCAACAUUCCGAGGGGACCGUCCCCUCGGUAAUGGCGCAUGGGACCCA [C15A A77C] as the variant, how does the self-cleavage read?
**A.** The self-cleavage was 0.0978.

**Q.** With GGCCGGCAUGGUCCAAGCCUCCUCGCUGGCGCCGGCUGGGCAACAUUCCGAGGGGACCGUCCCCUCGGUAAUGGCGGAUGGGACCCA [C15A A77G] as the variant, how does the self-cleavage read?
**A.** Its self-cleavage is 0.485.

**Q.** Which self-cleavage does the source give for GGCCGGCAUGGUCUCAGCCUCCUCGCUGGCGCCGGCUGGGCAACAUUCCGAGGGGACCGUCCCCUCGCUAAUGGCGAAUGGGACCCA [C14U G68C] here?
**A.** The self-cleavage was 0.733.

**Q.** With GGCCGGCAUGGUCCAAGCCUCCUCGCUGGCGCCGGCUGGGCAACAUUCCGAGGGGACCGUCCCCUCGGUAAUGGCGACUGGGACCCA [C15A A78C] as the variant, how does the self-cleavage read?
**A.** Its self-cleavage is 0.0652.

**Q.** With GGCCGGCAUGGUCUCAGCCUCCUCGCUGGCGCCGGCUGGGCAACAUUCCGAGGGGACCGUCCCCUCAGUAAUGGCGAAUGGGACCCA [C14U G67A] as the variant, how does the self-cleavage read?
**A.** Its self-cleavage is 1.09.

**Q.** For GGCCGGCAUGGUCUCAGCCUCCUCGCUGGCGCCGGCUGGGCAACAUUCCGAGGGGACCCUCCCCUCGGUAAUGGCGAAUGGGACCCA [C14U G59C], which self-cleavage is on record?
**A.** The self-cleavage was 1.01.

**Q.** For GGCCGGCAUGGUCCAAGCCUCCUCGCUGGCGCCGGCUGGGCUACAUUCCGAGGGGACCGUCCCCUCGGUAAUGGCGAAUGGGACCCA [C15A A42U], which self-cleavage is on record?
**A.** The self-cleavage was 0.269.

**Q.** With GGCCGGCAUGGUCCAAGCCUCCUCGCUGGCGCCGGCUGGGCAACAUUCCGAGGGGACCGUCCUCUCGGUAAUGGCGAAUGGGACCCA [C15A C63U] as the variant, how does the self-cleavage read?
**A.** Its self-cleavage is 0.649.

**Q.** With GGCCGGCAUGGUCUCAGCCUCCUCGCUGGCGCCGGCCGGGCAACAUUCCGAGGGGACCGUCCCCUCGGUAAUGGCGAAUGGGACCCA [C14U U37C] as the variant, how does the self-cleavage read?
**A.** The self-cleavage was 1.32.

**Q.** For GGCCGGCAUGGUCUCAGCCUCCUCGCUGGCGCCGGCUGGGCAACAAUCCGAGGGGACCGUCCCCUCGGUAAUGGCGAAUGGGACCCA [C14U U46A], which self-cleavage is on record?
**A.** The self-cleavage was 0.554.

**Q.** For GGCCGGCAUGGUCCAUGCCUCCUCGCUGGCGCCGGCUGGGCAACAUUCCGAGGGGACCGUCCCCUCGGUAAUGGCGAAUGGGACCCA [C15A A16U], which self-cleavage is on record?
**A.** The self-cleavage was 0.499.

**Q.** With GGCCGGCAUGGUCCAGGCCUCCUCGCUGGCGCCGGCUGGGCAACAUUCCGAGGGGACCGUCCCCUCGGUAAUGGCGAAUGGGACCCA [C15A A16G] as the variant, how does the self-cleavage read?
**A.** Its self-cleavage is 0.35.

**Q.** For GGCCGGCAUGGUCCAAGCCUCCUCGUUGGCGCCGGCUGGGCAACAUUCCGAGGGGACCGUCCCCUCGGUAAUGGCGAAUGGGACCCA [C15A C26U], which self-cleavage is on record?
**A.** The self-cleavage was 0.895.

**Q.** For GGCCGGCAUGGUCCAAGCCUCCUCGCUGGCGUCGGCUGGGCAACAUUCCGAGGGGACCGUCCCCUCGGUAAUGGCGAAUGGGACCCA [C15A C32U], which self-cleavage is on record?
**A.** Its self-cleavage is 0.314.

**Q.** With GGCCGGCAUGGUCUCAGCCUCCUCGCUGGCGCCGGCUGGGCAACAUUCCGAGGGGACCGUCCCCUCGGUAAUGGCGAACGGGACCCA [C14U U79C] as the variant, how does the self-cleavage read?
**A.** The self-cleavage was 0.259.

**Q.** For GGCCGGCAUGGUCUCAGCCUCCUCGCUUGCGCCGGCUGGGCAACAUUCCGAGGGGACCGUCCCCUCGGUAAUGGCGAAUGGGACCCA [C14U G28U], which self-cleavage is on record?
**A.** The self-cleavage was 0.285.

**Q.** Which self-cleavage does the source give for GGCCGGCAUGGUCUCAGCCUCCUCGCUGGCGCCGGCUGGGCAACAUUCCGAGGGGACCGUCCCCUCGGUAAUGUCGAAUGGGACCCA [C14U G74U] here?
**A.** Its self-cleavage is 0.733.

**Q.** Which self-cleavage does the source give for GGCCGGCAUGGUCUCAGCCUCCUCGCUGGCGCCGGCUGGGCAACAUUCCGAGGGGACCGUCCCCUCGGCAAUGGCGAAUGGGACCCA [C14U U69C] here?
**A.** Its self-cleavage is 1.4.

**Q.** For GGCCGGCAUGGUCCAAGCCUCCUCGCUGGCGCCGGGUGGGCAACAUUCCGAGGGGACCGUCCCCUCGGUAAUGGCGAAUGGGACCCA [C15A C36G], which self-cleavage is on record?
**A.** Its self-cleavage is 0.145.

**Q.** With GGCCGGCAUGGUCUCAGCCUCCUCCCUGGCGCCGGCUGGGCAACAUUCCGAGGGGACCGUCCCCUCGGUAAUGGCGAAUGGGACCCA [C14U G25C] as the variant, how does the self-cleavage read?
**A.** Its self-cleavage is 0.199.

**Q.** With GGCCGGCAUGGUCCAAGCCUCCUCGCUGGCGCCGGCUGGGCAACAUUCCGAGGGGACGGUCCCCUCGGUAAUGGCGAAUGGGACCCA [C15A C58G] as the variant, how does the self-cleavage read?
**A.** The self-cleavage was 1.02.

**Q.** For GGCCGGCAUGGUCCAAGCCUCCUCGCUGGCGCCGGCUGGGCAACAUUCCGAGGGGAGCGUCCCCUCGGUAAUGGCGAAUGGGACCCA [C15A C57G], which self-cleavage is on record?
**A.** The self-cleavage was 0.623.

**Q.** Which self-cleavage does the source give for GGCCGGCAUGGUCCAAGCCUCCUCGCUGGCGCCGGCUGGGCAACAUUCCGAGGGGAACGUCCCCUCGGUAAUGGCGAAUGGGACCCA [C15A C57A] here?
**A.** Its self-cleavage is 0.764.

**Q.** For GGCCGGCAUGGUCCAAGCCUCCUCGCUGGCGCCGGCUGGGCAACAUUCCGAGGGGAUCGUCCCCUCGGUAAUGGCGAAUGGGACCCA [C15A C57U], which self-cleavage is on record?
**A.** Its self-cleavage is 0.8.

**Q.** For GGCCGGCAUGGUCUCAGCCUCCUCGCUGGCGCCGGCUGGGCAACAUUCCGAGGGGACCGUCCCCUCGGUAAUGGCGAAUGAGACCCA [C14U G81A], which self-cleavage is on record?
**A.** Its self-cleavage is 1.32.

**Q.** With GGCCGGCAUGGUCUCAGCCUCCUCGCUGGCGCCGGCUGGCCAACAUUCCGAGGGGACCGUCCCCUCGGUAAUGGCGAAUGGGACCCA [C14U G40C] as the variant, how does the self-cleavage read?
**A.** The self-cleavage was 0.391.

**Q.** Which self-cleavage does the source give for GGCCGGCAUGGUCCAAGCCUCCUCGCUGGCGCCGGCUGGGCAACAUUCCGAGGGGACCGUCCCCUCGGUAAUGGUGAAUGGGACCCA [C15A C75U] here?
**A.** Its self-cleavage is 0.141.

**Q.** For GGCCGGCAUGGUCCAAGCCUCCUCGCUGGCGCCGGCUGGGCAACAUUCCGAGGGGACCGUCCCCUCGGUAUUGGCGAAUGGGACCCA [C15A A71U], which self-cleavage is on record?
**A.** The self-cleavage was 0.802.

**Q.** Which self-cleavage does the source give for GGCCGGCAUGGUCCAAGCCUCCUCGCUGGCGCUGGCUGGGCAACAUUCCGAGGGGACCGUCCCCUCGGUAAUGGCGAAUGGGACCCA [C15A C33U] here?
**A.** The self-cleavage was 0.427.
